Assay results as given in the supplement of paper PMC9112550, “Optimization of the antimicrobial peptide Bac7 by deep mutational scanning” (BMC Biology, 2022).

tested on: Escherichia coli TOP10; assay: shrunken log2 fold change of peptide-encoding DNA abundance (4.5 h post-induction vs induction); higher = less antimicrobial activity (less host growth inhibition); settings: time post-induction: 4.5 h; library: site-saturation at positions 5, 18, 19, 20
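Also: peptides expressed intracellularly from a pBAD plasmid library in pooled LB shake-flask culture, induced with 0.3% L-arabinose, DNA abundance read by NGS, three biological replicates, DESeq2 with apeglm shrinkage.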

Point of comparison: RRIRWRPPRLPRPRPRPRITPRP, “shrunken log2 fold change” value 0.00862. Against it:
- RRIRPRPPRLPRPRPRPVGKPRP — within 0.2 log units, -0.00576
- RRIRHRPPRLPRPRPRPVPKPRP — within 0.2 log units, 0.0819
- RRIRVRPPRLPRPRPRPQVIPRP — within 0.2 log units, -0.00246
- RRIRPRPPRLPRPRPRPCPFPRP — lower, -0.371
- RRIRDRPPRLPRPRPRPLSYPRP — within 0.2 log units, 0.194
- RRIRIRPPRLPRPRPRPFPRPRP — within 0.2 log units, -0.123
- RRIRDRPPRLPRPRPRPWIFPRP — within 0.2 log units, 0.148
- RRIRGRPPRLPRPRPRPDSDPRP — within 0.2 log units, 0.0289
- RRIRMRPPRLPRPRPRPVKPPRP — within 0.2 log units, 0.202
- RRIRDRPPRLPRPRPRPSGMPRP — within 0.2 log units, -0.0709
- RRIRNRPPRLPRPRPRPSMFPRP — lower, -0.458
- RRIRQRPPRLPRPRPRPASKPRP — within 0.2 log units, 0.0503
- RRIRRRPPRLPRPRPRPQYCPRP — lower, -0.3
- RRIRVRPPRLPRPRPRPEMGPRP — within 0.2 log units, 0.104
- RRIRTRPPRLPRPRPRPSIWPRP — within 0.2 log units, 0.112
- RRIRQRPPRLPRPRPRPRLDPRP — within 0.2 log units, 0.205
- RRIRYRPPRLPRPRPRPVAIPRP — lower, -0.702
- RRIRHRPPRLPRPRPRPHNSPRP — lower, -0.692
- RRIRNRPPRLPRPRPRPWEAPRP — within 0.2 log units, -0.173
- RRIRHRPPRLPRPRPRPDPVPRP — within 0.2 log units, 0.126
- RRIRGRPPRLPRPRPRPTRDPRP — higher, 0.965
- RRIRERPPRLPRPRPRPACQPRP — within 0.2 log units, 0.146
- RRIRARPPRLPRPRPRPDKWPRP — within 0.2 log units, -0.0676
- RRIRPRPPRLPRPRPRPYRIPRP — lower, -0.384
- RRIRIRPPRLPRPRPRPGVIPRP — within 0.2 log units, -0.0127
- RRIRRRPPRLPRPRPRPRNSPRP — within 0.2 log units, -0.0834
- RRIRYRPPRLPRPRPRPYENPRP — within 0.2 log units, 0.0075
- RRIRHRPPRLPRPRPRPNADPRP — within 0.2 log units, 0.031
- RRIRPRPPRLPRPRPRPPDYPRP — within 0.2 log units, -0.107
- RRIRHRPPRLPRPRPRPWRQPRP — within 0.2 log units, 0.0449
- RRIRVRPPRLPRPRPRPRNVPRP — lower, -0.192
- RRIRRRPPRLPRPRPRPDMSPRP — lower, -0.433
- RRIRIRPPRLPRPRPRPPTQPRP — higher, 0.215
- RRIRCRPPRLPRPRPRPYADPRP — within 0.2 log units, -0.037
- RRIRGRPPRLPRPRPRPTVQPRP — higher, 0.796
- RRIRYRPPRLPRPRPRPRNLPRP — within 0.2 log units, -0.036
- RRIRVRPPRLPRPRPRPTNHPRP — lower, -0.384
- RRIRGRPPRLPRPRPRPHNTPRP — lower, -0.277
- RRIRLRPPRLPRPRPRPTRGPRP — higher, 0.298
- RRIRLRPPRLPRPRPRPLVGPRP — higher, 0.246
- RRIRCRPPRLPRPRPRPWARPRP — within 0.2 log units, -0.188
- RRIRRRPPRLPRPRPRPRYHPRP — within 0.2 log units, 0.14
- RRIRVRPPRLPRPRPRPWSVPRP — within 0.2 log units, -0.0304
- RRIRIRPPRLPRPRPRPCWRPRP — within 0.2 log units, 0.157
- RRIRGRPPRLPRPRPRPKSPPRP — higher, 0.677
- RRIRMRPPRLPRPRPRPPLMPRP — higher, 1.34
- RRIRFRPPRLPRPRPRPIDKPRP — lower, -0.499
- RRIRERPPRLPRPRPRPMWYPRP — lower, -0.379
- RRIRIRPPRLPRPRPRPKEQPRP — within 0.2 log units, 0.0307
- RRIRHRPPRLPRPRPRPLHQPRP — within 0.2 log units, -0.00684
- RRIRSRPPRLPRPRPRPDEKPRP — within 0.2 log units, -0.0769
- RRIRTRPPRLPRPRPRPAWYPRP — within 0.2 log units, -0.172
- RRIRKRPPRLPRPRPRPAREPRP — higher, 0.89
- RRIRWRPPRLPRPRPRPHHTPRP — lower, -0.313
- RRIRTRPPRLPRPRPRPAWKPRP — within 0.2 log units, 0.0317
- RRIRDRPPRLPRPRPRPQCEPRP — within 0.2 log units, 0.0364
- RRIRRRPPRLPRPRPRPWREPRP — within 0.2 log units, -0.0799
- RRIRCRPPRLPRPRPRPHKKPRP — higher, 0.242
- RRIRDRPPRLPRPRPRPNVNPRP — within 0.2 log units, -0.166
- RRIRVRPPRLPRPRPRPAGCPRP — higher, 0.459
- RRIRYRPPRLPRPRPRPVDIPRP — within 0.2 log units, -0.00973
- RRIRMRPPRLPRPRPRPNKVPRP — within 0.2 log units, 0.0418
- RRIRCRPPRLPRPRPRPVHSPRP — within 0.2 log units, -0.107
- RRIRLRPPRLPRPRPRPITTPRP — lower, -0.283
- RRIRFRPPRLPRPRPRPSEEPRP — lower, -0.196
- RRIRIRPPRLPRPRPRPNPLPRP — within 0.2 log units, -0.0976
- RRIRIRPPRLPRPRPRPSLEPRP — within 0.2 log units, -0.05
- RRIRFRPPRLPRPRPRPWPTPRP — within 0.2 log units, -0.0457
- RRIRCRPPRLPRPRPRPKHNPRP — lower, -0.325
- RRIRNRPPRLPRPRPRPIRQPRP — within 0.2 log units, 0.0261
- RRIRVRPPRLPRPRPRPAKPPRP — higher, 0.296
- RRIRVRPPRLPRPRPRPEWCPRP — higher, 0.323
- RRIRWRPPRLPRPRPRPMSPPRP — within 0.2 log units, 0.000834
- RRIRNRPPRLPRPRPRPNIAPRP — lower, -0.352
- RRIRERPPRLPRPRPRPKWSPRP — within 0.2 log units, -0.146
- RRIRCRPPRLPRPRPRPGQFPRP — lower, -0.564
- RRIRQRPPRLPRPRPRPIHRPRP — within 0.2 log units, -0.0654
- RRIRHRPPRLPRPRPRPINMPRP — lower, -0.244
- RRIRVRPPRLPRPRPRPRACPRP — higher, 0.274
- RRIRGRPPRLPRPRPRPGKPPRP — higher, 0.516
- RRIRLRPPRLPRPRPRPDCPPRP — within 0.2 log units, 0.0832
- RRIRCRPPRLPRPRPRPWRAPRP — within 0.2 log units, 0.0569
- RRIRKRPPRLPRPRPRPPNVPRP — within 0.2 log units, 0.197
- RRIRLRPPRLPRPRPRPLARPRP — higher, 0.615
- RRIRLRPPRLPRPRPRPDHQPRP — within 0.2 log units, -0.118
- RRIRVRPPRLPRPRPRPDAIPRP — higher, 0.286
- RRIRPRPPRLPRPRPRPAIEPRP — within 0.2 log units, -0.0623
- RRIRERPPRLPRPRPRPPNVPRP — within 0.2 log units, 0.149
- RRIRNRPPRLPRPRPRPRTPPRP — higher, 0.261
- RRIRYRPPRLPRPRPRPIEYPRP — within 0.2 log units, -0.0912
- RRIRHRPPRLPRPRPRPHWDPRP — lower, -0.557
- RRIRGRPPRLPRPRPRPDWSPRP — within 0.2 log units, 0.203
- RRIRWRPPRLPRPRPRPREPPRP — higher, 0.35
- RRIRFRPPRLPRPRPRPKSKPRP — within 0.2 log units, -0.0737
- RRIRPRPPRLPRPRPRPAGKPRP — within 0.2 log units, -0.0291
- RRIRLRPPRLPRPRPRPHQWPRP — within 0.2 log units, -0.0297
- RRIRKRPPRLPRPRPRPRFRPRP — higher, 0.276
- RRIRKRPPRLPRPRPRPRASPRP — higher, 0.675
- RRIRVRPPRLPRPRPRPEDYPRP — within 0.2 log units, 0.0316
- RRIRMRPPRLPRPRPRPILCPRP — within 0.2 log units, 0.0427
- RRIRFRPPRLPRPRPRPCTMPRP — lower, -0.462
- RRIRCRPPRLPRPRPRPRYLPRP — lower, -0.799
- RRIRYRPPRLPRPRPRPRKCPRP — lower, -0.247
- RRIRARPPRLPRPRPRPCLAPRP — higher, 0.328
- RRIRVRPPRLPRPRPRPFMAPRP — within 0.2 log units, -0.128
- RRIRERPPRLPRPRPRPGVSPRP — within 0.2 log units, -0.00674
- RRIRMRPPRLPRPRPRPQGVPRP — within 0.2 log units, -0.0179
- RRIRRRPPRLPRPRPRPPNQPRP — higher, 0.337
- RRIRWRPPRLPRPRPRPMVRPRP — within 0.2 log units, 0.0171
- RRIRDRPPRLPRPRPRPCIAPRP — within 0.2 log units, 0.0755
- RRIRSRPPRLPRPRPRPYTAPRP — lower, -0.752
- RRIRVRPPRLPRPRPRPHAAPRP — within 0.2 log units, 0.156
- RRIRERPPRLPRPRPRPQHDPRP — lower, -0.265
- RRIRMRPPRLPRPRPRPKFIPRP — within 0.2 log units, -0.182
- RRIRMRPPRLPRPRPRPICHPRP — within 0.2 log units, 0.0206
- RRIRWRPPRLPRPRPRPTEEPRP — within 0.2 log units, 0.12
- RRIRVRPPRLPRPRPRPDFIPRP — lower, -0.396
- RRIRPRPPRLPRPRPRPLNIPRP — lower, -0.809
- RRIRKRPPRLPRPRPRPWVEPRP — within 0.2 log units, 0.104
- RRIRGRPPRLPRPRPRPPVNPRP — higher, 0.55
- RRIRERPPRLPRPRPRPGEDPRP — within 0.2 log units, -0.0649
- RRIRWRPPRLPRPRPRPFLKPRP — lower, -0.4
- RRIRPRPPRLPRPRPRPWNIPRP — within 0.2 log units, -0.00871
- RRIRDRPPRLPRPRPRPRDEPRP — within 0.2 log units, 0.12
- RRIRPRPPRLPRPRPRPCYHPRP — lower, -0.428
- RRIRSRPPRLPRPRPRPGSCPRP — within 0.2 log units, 0.0634
- RRIRKRPPRLPRPRPRPSHPPRP — within 0.2 log units, 0.146
- RRIRLRPPRLPRPRPRPMDLPRP — within 0.2 log units, -0.171
- RRIRSRPPRLPRPRPRPPFRPRP — within 0.2 log units, 0.193
- RRIRARPPRLPRPRPRPHDSPRP — within 0.2 log units, 0.037
- RRIRKRPPRLPRPRPRPKWFPRP — within 0.2 log units, -0.039
- RRIRERPPRLPRPRPRPNCVPRP — within 0.2 log units, -0.0533
- RRIRGRPPRLPRPRPRPWLTPRP — within 0.2 log units, 0.134
- RRIRWRPPRLPRPRPRPIEIPRP — within 0.2 log units, -0.101
- RRIRARPPRLPRPRPRPSNCPRP — lower, -0.285
- RRIRPRPPRLPRPRPRPPIPPRP — within 0.2 log units, 0.15
- RRIRMRPPRLPRPRPRPTWYPRP — within 0.2 log units, -0.112
- RRIRLRPPRLPRPRPRPSGRPRP — higher, 0.448
- RRIRYRPPRLPRPRPRPFRAPRP — within 0.2 log units, -0.142
- RRIRERPPRLPRPRPRPFEYPRP — within 0.2 log units, 0.0143
- RRIRARPPRLPRPRPRPWFCPRP — within 0.2 log units, 0.0743
- RRIRHRPPRLPRPRPRPHQGPRP — within 0.2 log units, -0.00197
- RRIRMRPPRLPRPRPRPMIRPRP — within 0.2 log units, 0.00211
- RRIRTRPPRLPRPRPRPQMKPRP — lower, -0.449
- RRIRSRPPRLPRPRPRPHGKPRP — within 0.2 log units, -0.18
- RRIRFRPPRLPRPRPRPPTRPRP — higher, 0.748
- RRIRDRPPRLPRPRPRPYKSPRP — within 0.2 log units, -0.106
- RRIRKRPPRLPRPRPRPGLKPRP — higher, 0.377
- RRIRFRPPRLPRPRPRPIDRPRP — within 0.2 log units, -0.0144
